Results as given in doi:10.1101/2025.08.19.670962 (2025).

B1: JIP3-GFP [not stated] / TMEM55B (in HEK293 wild type cells, Figure 4) [not stated] (parent complex)
chain 1: MMEIQMDEGGGVVVYQDDYCSGSVMSERVSGLAGSIYREFERLIHCYDEEVVKELMPLVVNVLENLDSVLSENQEHEVELELLREDNEQLLTQYEREKALRRQAEEKFIEFEDALEQEKKELQIQVEHYEFQTRQLELKAKNYADQISRLEERESEMKKEYNALHQRHTEMIQTYVEHIERSKMQQVGGNSQTESSLPGRRKERPTSLNVFPLADGTVRAQIGGKLVPAGDHWHLSDLGQLQSSSSYQCPQDEMSESGQSSAAATPSTTGTKSNTPTSSVPSAAVTPLNESLQPLGDYGVGSKNSKRAREKRDSRNMEVQVTQEMRNVSIGMGSSDEWSDVQDIIDSTPELDMCPETRLDRTGSSPTQGIVNKAFGINTDSLYHELSTAGSEVIGDVDEGADLLGEFSVRDDFFGMGKEVGNLLLENSQLLETKNALNVVKNDLIAKVDQLSGEQEVLRGELEAAKQAKVKLENRIKELEEELKRVKSEAIIARREPKEEAEDVSSYLCTESDKIPMAQRRRFTRVEMARVLMERNQYKERLMELQEAVRWTEMIRASREHPSVQEKKKSTIWQFFSRLFSSSSSPPPAKRPYPSVNIHYKSPTTAGFSQRRNHAMCPISAGSRPLEFFPDDDCTSSARREQKREQYRQVREHVRNDDGRLQACGWSLPAKYKQLSPNGGQEDTRMKNVPVPVYCRPLVEKDPTMKLWCAAGVNLSGWRPNEDDAGNGVKPAPGRDPLTCDREGDGEPKSAHTSPEKKKAKELPEMDATSSRVWILTSTLTTSKVVIIDANQPGTVVDQFTVCNAHVLCISSIPAASDSDYPPGEMFLDSDVNPEDPGADGVLAGITLVGCATRCNVPRSNCSSRGDTPVLDKGQGEVATIANGKVNPSQSTEEATEATEVPDPGPSEPETATLRPGPLTEHVFTDPAPTPSSGPQPGSENGPEPDSSSTRPEPEPSGDPTGAGSSAAPTMWLGAQNGWLYVHSAVANWKKCLHSIKLKDSVLSLVHVKGRVLVALADGTLAIFHRGEDGQWDLSNYHLMDLGHPHHSIRCMAVVYDRVWCGYKNKVHVIQPKTMQIEKSFDAHPRRESQVRQLAWIGDGVWVSIRLDSTLRLYHAHTHQHLQDVDIEPYVSKMLGTGKLGFSFVRITALLVAGSRLWVGTGNGVVISIPLTETVVLHRGQLLGLRANKTSPTSGEGARPGGIIHVYGDDSSDRAASSFIPYCSMAQAQLCFHGHRDAVKFFVSVPGNVLATLNGSVLDSPAEGPGPAAPASEVEGQKLRNVLVLSGGEGYIDFRIGDGEDDETEEGAGDMSQVKPVLSKAERSHIIVWQVSYTPE
chain 2: not shown

Variants of: B1
Assay: co-immunoprecipitation (GFP IP, quantitative immunoblot); HEK293 wild type cells, lysed 24h post transfection; parent: 31; read off a plot

| Variant | response [TMEM55B/GFP] |
| --- | --- |
| chain 1 A895L, chain 1 E897K | ~10 |
